Experimental data taken from patent US20250332297A1, “DLL3-SPECIFIC BINDING CONSTRUCTS AND THEIR USE IN RADIOTHERAPY” (MOLECULAR PARTNERS AG, priority 2024, published 2025).
Like-named read-outs stand apart in the source and are kept apart here.

T1: NCI-H82 cells expressing human DLL3 (Homo sapiens, UniProt Q9NYJ7)
T1 construct: a human lung carcinoma cell line which endogenously expresses DLL3 on the surface; host or cells: NCI-H82
T1 sequence (Q9NYJ7 27-618): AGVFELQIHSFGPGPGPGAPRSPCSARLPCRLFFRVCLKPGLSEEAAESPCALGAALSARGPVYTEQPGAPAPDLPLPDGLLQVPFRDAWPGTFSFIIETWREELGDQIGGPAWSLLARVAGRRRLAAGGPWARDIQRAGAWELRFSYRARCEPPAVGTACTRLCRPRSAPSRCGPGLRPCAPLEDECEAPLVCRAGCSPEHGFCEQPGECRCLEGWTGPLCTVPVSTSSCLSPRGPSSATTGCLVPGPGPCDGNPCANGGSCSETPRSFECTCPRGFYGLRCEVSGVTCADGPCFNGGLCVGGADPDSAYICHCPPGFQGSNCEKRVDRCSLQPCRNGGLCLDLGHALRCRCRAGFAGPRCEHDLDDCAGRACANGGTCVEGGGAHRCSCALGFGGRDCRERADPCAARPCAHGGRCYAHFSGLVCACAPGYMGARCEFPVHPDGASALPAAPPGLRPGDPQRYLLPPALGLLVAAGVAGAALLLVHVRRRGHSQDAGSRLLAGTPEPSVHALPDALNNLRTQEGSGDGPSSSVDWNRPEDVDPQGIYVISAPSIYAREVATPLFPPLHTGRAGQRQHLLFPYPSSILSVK

T2: human DLL3 expressed on HEK293T-huDLL3 cells (Homo sapiens, UniProt Q9NYJ7)
T2 construct: expressed in transfected cells; host or cells: HEK293T-hDLL3
T2 sequence (Q9NYJ7 27-618): T1 sequence (Q9NYJ7 27-618)

B1: MAM282: Two domain (2D) ankyrin repeat protein: serum albumin-specific domain (SEQ ID NO: 7), PT linker, DLL3-specific domain (SEQ ID NO: 2) (protein)
chain: DLGKKLLEAARAGQDDEVRELLKAGADVNAKDYFSHTPLHLAARNGHLKIVEVLLKAGADVNAKDFAGKTPLHLAADAGHLEIVEVLLKAGADVNAQDIFGKTPADIAADAGHEDIAEVLQKAAGSPTPTPTTPTPTPTTPTPTPTGSDLGKKLLAAAREGQDDEVRELLKAGADVNAKDIWGQTPLHIAAWFGHLEIVEVLLKAGADVNAKDQTGHTPLHLAAKFGHLEIVEVLLKAGADVNAQDLLGRTPADLAAEEGHEDIAEVLQKAA
modifications: Ankyrin repeat protein (MAM282)
B2: MAM283: Two domain (2D) ankyrin repeat protein: serum albumin-specific domain (SEQ ID NO: 7), PT linker, DLL3-specific domain (SEQ ID NO: 3) (protein)
chain: DLGKKLLEAARAGQDDEVRELLKAGADVNAKDYFSHTPLHLAARNGHLKIVEVLLKAGADVNAKDFAGKTPLHLAADAGHLEIVEVLLKAGADVNAQDIFGKTPADIAADAGHEDIAEVLQKAAGSPTPTPTTPTPTPTTPTPTPTGSDLGKKLLAAAADGQDDEVRELLQAGADVNAKDLFGYTPLHLAAWRGHLEIVEVLLEAGADVNAKDAAGETPLHLAAWFGHLEIVEVLLEAGADVNAQDVQGKTPADLAAKEGHEDIAEVLQQAA
modifications: Ankyrin repeat protein (MAM283)

Assays:
mouse serum albumin = biological target: T3, mouse serum albumin (Mus musculus, UniProt P07724); test: SPR binding to mouse serum albumin (Example 1); details: immobilized MSA, 1:1 Langmuir, Table 2
T3 construct: purchased Sigma-Aldrich
T3 sequence (P07724 25-608): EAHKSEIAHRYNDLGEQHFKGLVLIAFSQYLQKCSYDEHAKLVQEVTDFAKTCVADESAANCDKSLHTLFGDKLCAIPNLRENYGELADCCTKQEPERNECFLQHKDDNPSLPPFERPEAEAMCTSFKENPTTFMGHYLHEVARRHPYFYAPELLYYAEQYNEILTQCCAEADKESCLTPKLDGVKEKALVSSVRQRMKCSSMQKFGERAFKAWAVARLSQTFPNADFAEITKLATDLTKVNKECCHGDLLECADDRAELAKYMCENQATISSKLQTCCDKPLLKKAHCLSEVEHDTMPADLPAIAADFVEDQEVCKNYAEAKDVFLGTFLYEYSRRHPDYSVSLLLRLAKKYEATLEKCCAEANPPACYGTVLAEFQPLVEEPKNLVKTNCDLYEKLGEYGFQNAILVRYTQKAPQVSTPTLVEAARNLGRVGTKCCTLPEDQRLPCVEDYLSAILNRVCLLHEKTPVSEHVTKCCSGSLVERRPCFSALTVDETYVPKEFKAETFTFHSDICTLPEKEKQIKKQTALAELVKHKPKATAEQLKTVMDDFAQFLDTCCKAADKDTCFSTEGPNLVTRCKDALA
Description: (§1) Similarly, a SPR assay was used to determine the binding kinetics to human or mouse serum albumin. […] All analytes (3-fold dilution ranging from 1000-12.35 nM) were injected in succession for 240 s (25 μl/min) and dissociation was recorded for 600 s (25 μl/min). […] The obtained SPR traces were used to determine the ankyrin repeat protein-serum albumin interaction parameters, summarized in Table 2.

[1] = biological target: T1, NCI-H82 cells expressing human DLL3; test: Cell binding titration on NCI-H82 cells; format: cell-based
Description: Furthermore, cell binding titration assays were also performed with selected two domain (2D) designed ankyrin repeat proteins to determine binding to human cells expressing DLL3 endogenously, in absence and presence of human serum albumin. For this purpose, NCI-H82 cells were used, a human lung carcinoma cell line which endogenously expresses DLL3 on the surface. […] A non-binding DARPin comprising SEQ ID NO: 22 was used as a negative control.
In brief, 1×10^5 cells/well were resuspended in 100 μl DARPin dilution (500 nM, 1:5 serial diluted in PBS, 2% FBS) and incubated for 1 h at 4° C. This step was performed in absence and presence of 10 μM Human Serum Albumine (CSL Behring #150570). Cells were washed twice with PBS, 2% FBS and resuspended in 100 μl anti-DARPin antibody (rabbit anti-DARPin 1.4.8) and LIVE/DEAD cell stain (1:1000, Biolegend #423106). After incubation and washing, cells were incubated with detection antibody for 30 minutes (Goat […] IgG (H+L), AF647, Thermo Fisher #21445). Cells were fixed (Paraformaldehyde Solution, TCL119, LucernaChem) and acquired at Attune N×T (Thermo Life Technologies). Raw fcs files were exported and analyzed using FlowJo software. MFI values of live AF647-positive cells were exported from FlowJo and plotted using GraphPad Prism software.

hDLL3-MC38 tumor model = test: Biodistribution of radio-labelled DARPin conjugates in hDLL3-MC38 tumor model; format: in vivo, mouse; details: Pb-212 DOTAM conjugate 0.01 mg/kg (10 μCi) i.v., athymic nude mice, s.c. hDLL3-MC38
From the text: hDLL3-MC38 tumor model. ATH mice were purchased from Envigo. General handling and maintenance of mice was done as described above for the NCI-H82 tumor model. hDLL3-MC38 cells were purchased from Biocytogen (Catalog No. 311448). […] Cells were quantified using Countess cell counter.
Biodistribution study. […] Based on immunohistochemistry analyses, the hDLL3-MC38 tumors have a higher level of human DLL3 expression than the NCI-H82 tumors described in Example 3 (data not shown). Biodistribution was monitored at 1 h, 4 h and 24h post-injection. Mice were euthanized by CO2 inhalation and cervical dislocation.
Mice were euthanized by CO2 inhalation and cervical dislocation.

[2] = Thermal stability by Circular Dichroism (CD) spectroscopy; format: physicochemical; details: CD at 222 nm, 20° C. to 90° C., 2 μM in PBS pH7.4; DARPins with C-terminal Cysteine-containing tag (SEQ ID NOs: 15, 16, 18)
Description: Labelling of proteins conjugated to a chelator with a radionuclide may require harsh conditions, including high temperatures. The thermal stability and the propensity to unfold/refold of 2D DARPins MAM279, MAM283 and MAM282 were assessed using Circular Dichroism (CD) spectroscopy.
Samples of the DARPins were diluted to 2 μM in PBS, pH7.4. The assessment was done using a Jasco J-815 spectrophotometer. The Tm (melting temperature) of the selected proteins was determined by CD as a parameter for thermal stability. In brief, the ellipticity was recorded at […] and a temperature range from 20° C. to 90° C. was applied followed by reverse scan to record the refolding behavior. The Tm of the selected ankyrin repeat protein constructs is the midpoint of the protein unfolding. Spectra from 190-250 nm were recorded before and after the temperature scan.

[3] = biological target: T2, human DLL3 expressed on HEK293T-huDLL3 cells; test: Cell binding titration on HEK293T-hDLL3 cells; format: cell-based; details: presence of human serum albumin (10 μM in FIG. 9 legend, 10 pM in the source), read-out: Cell binding EC50, with HSA
human serum albumin = human serum albumin (Homo sapiens, UniProt P02768); test: SPR binding to human serum albumin (Example 1); set-up: purchased CSL; details: immobilized HSA, 1:1 Langmuir, Table 2
Description: as §1

[4] = absence of human serum albumin, read-out: Cell binding EC50, w/o HSA
[5] = presence of 10 μM human serum albumin, read-out: Cell binding EC50, with HSA

| EC50 [1, 4] [nM] | EC50 [1, 5] [nM] | EC50 [3] [nM] | Molecule | Kd (mouse serum albumin) [nM] | Koff MSA (mouse serum albumin) [s⁻¹] | Kon MSA (mouse serum albumin) [M⁻¹ s⁻¹] | melting temperature (Tm) [2] | Kd (human serum albumin) [nM] | Koff HSA (human serum albumin) [s⁻¹] | Kon HSA (human serum albumin) [M⁻¹ s⁻¹] | also measured |
| --- | --- | --- | --- | --- | --- | --- | --- | --- | --- | --- | --- |
| 2.6 | 2.6 | 19.6 | B1 | 335 | 0.0354 | 105900 | above 90 °C | 74.3 | 0.00889 | 120000 | Blood % ID/g (hDLL3-MC38 tumor model; 4 h, Example 8): 28.6 % ID/g; Kidneys % ID/g (hDLL3-MC38 tumor model; 4 h, Example 8): 19.4 % ID/g; Tumors % ID/g (hDLL3-MC38 tumor model; 4 h, Example 8): 21.4 % ID/g; Blood % ID/g (hDLL3-MC38 tumor model; 24 h, Example 8): 9.9 % ID/g; Kidneys % ID/g (hDLL3-MC38 tumor model; 24 h, Example 8): 27.9 % ID/g; Tumors % ID/g (hDLL3-MC38 tumor model; 24 h, Example 8): 51.9 % ID/g |
| 5.4 | 8.1 | 18.4 | B2 | 507 | 0.0378 | 74680 | about 82 °C | 103 | 0.00924 | 89500 | Blood % ID/g (hDLL3-MC38 tumor model; 4 h, Example 7): 21.1 % ID/g; Kidneys % ID/g (hDLL3-MC38 tumor model; 4 h, Example 7): 16.9 % ID/g; Tumors % ID/g (hDLL3-MC38 tumor model; 4 h, Example 7): 22.5 % ID/g; Blood % ID/g (hDLL3-MC38 tumor model; 24 h, Example 7): 0.8 % ID/g; Kidneys % ID/g (hDLL3-MC38 tumor model; 24 h, Example 7): 26.8 % ID/g; Tumors % ID/g (hDLL3-MC38 tumor model; 24 h, Example 7): 45.5 % ID/g |
